This is an account of results in US20060247419A1, “Translocation dependent complementation for drug screening” (BioImage A/S, priority 2002, published 2006).

For test [1], the target named is FRB-CtermEYFP173 (human; Aequorea victoria) (UniProt P42345). The test can be described thus: cell-based or functional assay.
Test [2] deals with FKBP-CtermEYFP173 (human; Aequorea victoria) (UniProt P62942). The test can be described thus: cell-based or functional assay.
The test system of test [3] is β-catenin translocation to the nucleus and interaction with TCF4 (GSK3β inhibited by lithium ions). Nature of the test: TIDC: β-catenin translocation and β-catenin:TCF4 interaction dependent complementation, CHO[ps1706+ps1810]. It counts as cell-based, chinese hamster. Conditions: 5 mM LiCl for 16 hours. The text has this:
In this example, complementary halves of GFP are fused separately to β-catenin and also to histone H2B coupled to the β-catenin-binding fragment of the transcriptional co-activator TCF4. Both constructs are then co-transfected and expressed within mammalian cells. The β-catenin construct is expected to be localised entirely in the cell cytoplasm at a low level, its concentration effectively controlled by the activity of the protein kinase GSK3β. The H2B-TCF4 construct will be localised in the nuclei of cells by the highly basic histone moeity. […] The development of nuclear fluorescence in lithium-treated cells therefore effectively reports on the combined result of translocation of β-catenin to the nucleus and the subsequent interaction between β-catenin and the β-catenin binding domain of TCF4. […]
After 10 to 12 days culture in the continuous presence of the selection agents, the resulting cell lines were judged to be stably transfected. For fluorescence microscopy, aliquots of cells were transferred to Lab-Tek chambered cover glasses (Nalge Nunc International, Naperville USA) and allowed to adhere for at least 24 hours to reach about 80% confluence. Images were collected using a Zeiss LSM410 inverted confocal fluorescence microscope (Zeiss, Jena, Germany) using x40 (oil immersion) objective. […]

The test system of test [4] is translocation of β-catenin to the nucleus (GSK3β inhibited by lithium ions). Nature of the test: TDCzip: β-catenin translocation dependent complementation with leucine zippers, CHO[ps1736+ps1758]. It counts as cell-based, chinese hamster. Conditions: 5 mM LiCl for 16 hours. The text has this:
In this example, complementary halves of GFP are fused separately to β-catenin and to histone H2B and co-expressed within cells. The β-catenin construct is expected to be localised entirely in the cell cytoplasm at a low level, its concentration effectively controlled by the activity of the protein kinase GSK3β. The H2B construct will be localised in the nuclei of cells by the highly basic histone moeity. […] However, when GSK3β is inhibited by lithium ions, the cytoplasmic level of the β-catenin construct is expected to increase in the cytoplasm, and to translocate in significant fashion to the nucleus. Both constructs have been engineered to contain a leucine zipper domain. […] The development of nuclear fluorescence in lithium-treated cells therefore effectively reports on the translocation of β-catenin to the nucleus. […]
After 10 to 12 days culture in the continuous presence of the selection agents, the resulting cell lines were judged to be stably transfected. For fluorescence microscopy, aliquots of cells were transferred to Lab-Tek chambered cover glasses (Nalge Nunc International, Naperville USA) and allowed to adhere for at least 24 hours to reach about 80% confluence. […] Image collection, subsequent measurement and analysis of fluorescence intensity were all controlled by IPLab Spectrum for Windows software (Scanalytics, Fairfax, Va. USA). […]

Test [5] deals with translocation of β-catenin to the nucleus (GSK3β inhibited by lithium; FKBP:FRB induced by rapamycin). The test can be described thus: TDCrap: β-catenin translocation dependent complementation with rapamycin-inducible FKBP:FRB, CHO ps1809 with ps1827. Particulars: 5 mM LiCl for 16 hours. The format is cell-based, chinese hamster.
Description: In this example, complementary halves of GFP are fused separately to β-catenin and to histone H2B and co-expressed within cells. The β-catenin construct is expected to be localised entirely in the cell cytoplasm at a low level, its concentration effectively controlled by the activity of the protein kinase GSK3β. The H2B construct will be localised in the nuclei of cells by the highly basic histone moeity. […] Both constructs have also been engineered to contain inducible interaction domains. […] The H2B construct includes FRB, which is the 93 amino acid portion of FRAP, the large PI3Kinase homolog FRAP (also known as mTOR or RAFT).
Plasmids ps1809 with ps1827 were co-transfected into chinese hamster ovary cells (CHO) using the transfection agent FuGENE™ 6 (Boehringer Mannheim Corp, USA) according to the method recommended by the suppliers. […]
After 10 to 12 days culture in the continuous presence of the selection agents, the resulting cell lines were judged to be stably transfected. For fluorescence microscopy, aliquots of cells were transferred to Lab-Tek chambered cover glasses (Nalge Nunc International, Naperville USA) and allowed to adhere for at least 24 hours to reach about 80% confluence. […] Images were collected using a Zeiss LSM410 inverted confocal fluorescence microscope (Zeiss, Jena, Germany) using x40 (oil immersion) objective. […]
In test [6] the target is FKBP and FRB (FKBP binding part of FRAP) (Homo sapiens, UniProt P42345+P62942). The test can be described thus: Rapamycin-inducible FKBP:FRB split-EYFP complementation, CHO-hIR [PS1767+PS1768] cells. It counts as cell-based. Conditions: 1 μM rapamycin.
Protocol: Probes were co-transfected in pairs into CHO-hIR cells (supra), PS1769 with PS1771 and PS1767 with PS1768, using the transfection agent FuGENE™ 6 (Boehringer Mannheim Corp, USA) according to the method recommended by the suppliers. Cells were cultured in growth medium (HAM's F12 nutrient mix with Glutamax-1, 10% foetal bovine serum (FBS), 100 μg penicillin-streptomycin mixture ml^−1 (GibcoBRL, supplied by Life Technologies, Denmark)). Transfected cells were cultured in this medium, with the addition of two selection agents appropriate to the plasmids being used, being 1 mg/ml zeocin plus 0.5 mg/mlG418 sulphate. Cells were cultured at 37° C. in 100% humidity and conditions of normal atmospheric gases supplemented with 5% CO2.
After 10 to 12 days culture in the continuous presence of the selection agents, the resulting cell lines were judged to be stably transfected. For fluorescence microscopy, aliquots of cells were transferred to Lab-Tek chambered cover glasses (Nalge Nunc International, Naperville USA) and allowed to adhere for at least 24 hours to reach about 80% confluence. Images were routinely collected using a Nikon Diaphot 300 inverted fluorescence microscope (Nikon Corp., Tokyo, Japan) using x20 (dry) and/or x40 (oil immersion) objectives and coupled to a Orca ER charged coupled device (CCD) camera (Hammamatsu Photonics K.K., Hammamatsu City, Japan). […]

In test [1], “NtermE[F64L]YFP172-FKBP (from UniProt P62942 1-108)” displayed an EC50 of FK506 in competition with 100 nM rapamycin, EYFP fluorescence/cell, 16 hours, 'black' group of 1200 nM.

Turning to “NtermE[F64L]YFP172-FRB (from UniProt P42345 2025-2114)”, in test [2], the EC50 of FK506 in competition with 100 nM rapamycin, EYFP fluorescence/cell, 16 hours, 'mid to low-green' group came to 1200 nM; the EC50 of rapamycin, dose-response of EYFP fluorescence at 7 and 30 hours, 'black' FACS group amounted to 100 nM; the EC50 of rapamycin, dose-response of EYFP fluorescence at 7 and 30 hours, 'medium to low-green' FACS group was 250 nM; the half-time for development of cellular EYFP fluorescence after 3 µM rapamycin came to 5 h. Besides, in test [2], the increase in EYFP fluorescence with rapamycin over the unstimulated value, 'medium to low-green' and 'black' FACS groups is above 20 fold; the share of cells responding 16 hours after 1 µM rapamycin is 70 % of cells; the share of cells with EYFP fluorescence before rapamycin (t=0) was < 5 % of cells; the share of cells with greater EYFP fluorescence 4 hours after 1 µM rapamycin is 40 % of cells.

Regarding `[Cl-].[Li+]` [LiCl, lithium chloride], the “number of cells containing fluorescent GFP (nuclear)” value in test [3] and in test [5] was “the number of cells containing fluorescent GFP increases greatly” each time. Further, the “cells with GFP-bright nuclei” value in test [4] is reported as “a fraction of these cells display GFP-bright nuclei”.

With `CO[C@H]1C[C@@H]2CC[C@@H](C)[C@@](O)(O2)C(=O)C(=O)N2CCCC[C@H]2C(=O)O[C@H]([C@H](C)C[C@@H]2CC[C@@H](O)[C@H](OC)C2)CC(=O)[C@H](C)/C=C(\C)[C@@H](O)[C@@H](OC)C(=O)[C@H](C)C[C@H](C)/C=C/C=C/C=C/1C` [rapamycin], in test [6] (after 4 hours), the “proportion of cells with significantly greater EYFP fluorescence” value is “approximately 40%”. In test [6] (after 16 hours), the “proportion of the cell population responding” value is listed as “approximately 70%”.
